{"source": "patent US20230242620A1", "about": "(published 2023)", "experiment_in_all_cases": "SPR Biacore T100, 21-4-3 captured on anti-mouse IgG, 500 nM analyte", "key": {"[1]": {"target": "T1, SEQ ID NO: 55", "T1 construct": "no mutations", "T1 sequence (chain, as listed by the source)": "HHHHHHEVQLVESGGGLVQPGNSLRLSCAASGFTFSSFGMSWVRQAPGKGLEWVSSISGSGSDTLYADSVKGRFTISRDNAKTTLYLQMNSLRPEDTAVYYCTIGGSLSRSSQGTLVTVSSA", "protocol": "(§1) Binding measurements were performed using a Biacore T100 using a CM5 T120416 sensor chip, with running buffer HBS-EP+, 25° C. […] The anti-mouse IgG used was a polyclonal rabbit anti-mouse IgG antibodies reacting with all IgG subclasses, IgA and IgM (GE Healthcare; Cat #BR-1008-38; Lot #10056316). Immobilisation of the anti-mouse IgG was performed using manual amine coupling using a 7 minute injection of EDC/NHS for activation and a 7 minute injection of 1M ethanolamine HCl pH 8.5 for deactivation (Biacore, amine coupling kit)."}, "[2]": {"target": "T2, SEQ ID NO: 68", "T2 construct": "P14A, L108Q", "protocol": "as §1"}, "[3]": {"target": "T3, SEQ ID NO: 79", "T3 construct": "no mutations", "T3 sequence (VHH, as listed by the source)": "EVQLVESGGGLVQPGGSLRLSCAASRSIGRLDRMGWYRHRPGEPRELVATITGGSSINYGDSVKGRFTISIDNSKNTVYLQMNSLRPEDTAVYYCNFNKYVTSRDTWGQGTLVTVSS", "protocol": "as §1"}, "[4]": {"target": "T4, SEQ ID NO: 40", "T4 construct": "no mutations", "T4 sequence (chain, as listed by the source)": "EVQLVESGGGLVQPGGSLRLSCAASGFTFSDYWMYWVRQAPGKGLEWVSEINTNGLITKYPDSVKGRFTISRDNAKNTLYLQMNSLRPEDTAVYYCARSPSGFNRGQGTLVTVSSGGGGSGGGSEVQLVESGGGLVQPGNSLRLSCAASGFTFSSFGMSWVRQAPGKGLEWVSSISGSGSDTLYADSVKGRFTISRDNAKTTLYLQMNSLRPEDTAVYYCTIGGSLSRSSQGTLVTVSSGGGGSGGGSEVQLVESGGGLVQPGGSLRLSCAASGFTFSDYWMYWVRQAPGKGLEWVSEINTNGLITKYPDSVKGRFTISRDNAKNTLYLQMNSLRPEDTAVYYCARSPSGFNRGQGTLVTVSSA", "protocol": "as §1"}, "[5]": {"target": "T5, SEQ ID NO: 84", "T5 construct": "S112G", "protocol": "as §1"}, "[6]": {"target": "T6, SEQ ID NO: 83", "T6 construct": "T87A", "protocol": "as §1"}, "[7]": {"target": "T7, SEQ ID NO: 58", "T7 construct": "no mutations", "T7 sequence (chain, as listed by the source)": "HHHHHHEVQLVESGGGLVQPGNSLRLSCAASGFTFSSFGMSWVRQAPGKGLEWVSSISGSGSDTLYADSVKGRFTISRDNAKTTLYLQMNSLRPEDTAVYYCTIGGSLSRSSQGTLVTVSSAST", "protocol": "as §1"}, "[8]": {"target": "T8, SEQ ID NO: 66", "T8 construct": "L11S", "protocol": "as §1"}, "[9]": {"target": "T9, SEQ ID NO: 45", "T9 construct": "P14A, P41T, S62F, S74A, S82bN, R83K, L108Q", "T9 sequence (VHH, as listed by the source)": "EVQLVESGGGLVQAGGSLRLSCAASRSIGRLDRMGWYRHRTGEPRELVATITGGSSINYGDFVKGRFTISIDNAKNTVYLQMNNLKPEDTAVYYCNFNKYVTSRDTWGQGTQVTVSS", "protocol": "as §1"}, "[10]": {"target": "T10, SEQ ID NO: 76", "T10 construct": "no mutations", "protocol": "as §1"}, "[11]": {"target": "T11, SEQ ID NO: 89", "T11 construct": "L11S, P14A, T110Q, S112G, S113G", "T11 sequence (VHH, as listed by the source)": "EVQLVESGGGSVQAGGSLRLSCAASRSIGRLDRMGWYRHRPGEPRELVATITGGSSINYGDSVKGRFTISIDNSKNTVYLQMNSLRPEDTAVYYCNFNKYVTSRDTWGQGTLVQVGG", "protocol": "as §1"}, "[12]": {"target": "T12, SEQ ID NO: 47", "T12 construct": "no mutations", "protocol": "as §1"}, "[13]": {"target": "T13, SEQ ID NO: 37", "T13 construct": "no mutations", "protocol": "as §1"}, "[14]": {"target": "T14, SEQ ID NO: 80", "T14 construct": "T110Q, S112G, S113G", "T14 sequence (VHH, as listed by the source)": "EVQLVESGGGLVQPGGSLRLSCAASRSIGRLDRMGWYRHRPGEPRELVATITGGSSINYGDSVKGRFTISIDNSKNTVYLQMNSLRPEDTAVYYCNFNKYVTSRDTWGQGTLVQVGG", "protocol": "as §1"}, "[15]": {"target": "T15, SEQ ID NO: 77", "T15 construct": "no mutations", "protocol": "as §1"}, "[16]": {"target": "T16, SEQ ID NO: 60", "T16 construct": "no mutations", "T16 sequence (chain, as listed by the source)": "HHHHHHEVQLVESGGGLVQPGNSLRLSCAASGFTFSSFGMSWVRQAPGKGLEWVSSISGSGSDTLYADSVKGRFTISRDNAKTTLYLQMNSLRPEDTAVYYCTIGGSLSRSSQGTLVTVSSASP", "protocol": "as §1"}, "[17]": {"target": "T17, SEQ ID NO: 86", "T17 construct": "L11S, T110Q", "protocol": "as §1"}, "[18]": {"target": "T18, SEQ ID NO: 67", "T18 construct": "R83K", "T18 sequence (VHH, as listed by the source)": "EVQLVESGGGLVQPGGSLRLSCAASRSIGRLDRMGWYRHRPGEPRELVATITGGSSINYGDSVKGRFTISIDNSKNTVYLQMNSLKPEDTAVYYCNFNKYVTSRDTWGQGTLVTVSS", "protocol": "as §1"}, "[19]": {"target": "T19, SEQ ID NO: 63", "T19 construct": "no mutations", "protocol": "as §1"}, "[20]": {"target": "T20, SEQ ID NO: 73", "T20 construct": "S112G, S113G", "T20 sequence (VHH, as listed by the source)": "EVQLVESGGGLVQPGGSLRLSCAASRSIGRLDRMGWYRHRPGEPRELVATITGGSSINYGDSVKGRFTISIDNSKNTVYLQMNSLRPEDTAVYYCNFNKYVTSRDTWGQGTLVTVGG", "protocol": "as §1"}, "[21]": {"target": "T21, SEQ ID NO: 65", "T21 construct": "P14A", "protocol": "as §1"}, "[22]": {"target": "T22, SEQ ID NO: 74", "T22 construct": "no mutations", "protocol": "as §1"}, "[23]": {"target": "T23, SEQ ID NO: 43", "T23 construct": "no mutations", "protocol": "as §1"}, "[24]": {"target": "T24, SEQ ID NO: 41", "T24 construct": "no mutations", "protocol": "as §1"}, "[25]": {"target": "T25, SEQ ID NO: 78", "T25 construct": "Q13R", "T25 sequence (VHH, as listed by the source)": "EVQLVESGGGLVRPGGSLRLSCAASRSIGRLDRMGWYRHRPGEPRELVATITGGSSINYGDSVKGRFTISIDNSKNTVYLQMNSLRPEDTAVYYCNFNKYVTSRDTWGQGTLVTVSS", "protocol": "as §1"}, "[26]": {"target": "T26, SEQ ID NO: 52", "T26 construct": "S112G", "T26 sequence (chain, as listed by the source)": "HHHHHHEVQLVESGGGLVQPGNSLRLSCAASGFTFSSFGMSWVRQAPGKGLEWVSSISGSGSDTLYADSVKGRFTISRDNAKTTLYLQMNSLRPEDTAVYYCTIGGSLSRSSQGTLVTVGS", "protocol": "as §1"}, "[27]": {"target": "T27, SEQ ID NO: 38", "T27 construct": "no mutations", "T27 sequence (chain, as listed by the source)": "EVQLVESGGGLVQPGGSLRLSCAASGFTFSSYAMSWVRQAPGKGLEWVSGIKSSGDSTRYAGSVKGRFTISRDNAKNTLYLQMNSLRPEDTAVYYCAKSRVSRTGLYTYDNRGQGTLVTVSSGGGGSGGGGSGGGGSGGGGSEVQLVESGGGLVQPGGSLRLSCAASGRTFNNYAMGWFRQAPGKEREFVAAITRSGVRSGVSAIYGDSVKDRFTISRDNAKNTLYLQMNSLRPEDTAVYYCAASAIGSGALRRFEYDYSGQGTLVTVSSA", "protocol": "as §1"}, "[28]": {"target": "T28, SEQ ID NO: 44", "T28 construct": "no mutations", "T28 sequence (chain, as listed by the source)": "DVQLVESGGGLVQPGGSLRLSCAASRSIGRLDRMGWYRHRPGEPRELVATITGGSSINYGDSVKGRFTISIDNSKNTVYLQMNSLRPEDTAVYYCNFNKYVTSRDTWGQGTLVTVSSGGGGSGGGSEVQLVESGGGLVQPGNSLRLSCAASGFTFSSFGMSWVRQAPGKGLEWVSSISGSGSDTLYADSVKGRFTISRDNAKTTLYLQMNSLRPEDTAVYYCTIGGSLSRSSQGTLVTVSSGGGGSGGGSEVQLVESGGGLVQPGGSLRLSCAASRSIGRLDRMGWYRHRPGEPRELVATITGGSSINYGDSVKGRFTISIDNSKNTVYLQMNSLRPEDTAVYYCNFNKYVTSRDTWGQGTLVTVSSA", "protocol": "as §1"}, "[29]": {"target": "T29, SEQ ID NO: 57", "T29 construct": "no mutations", "T29 sequence (chain, as listed by the source)": "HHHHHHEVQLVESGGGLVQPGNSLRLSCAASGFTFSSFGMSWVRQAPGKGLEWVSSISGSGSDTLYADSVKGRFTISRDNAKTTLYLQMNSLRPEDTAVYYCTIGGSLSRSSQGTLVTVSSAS", "protocol": "as §1"}, "[30]": {"target": "T30, SEQ ID NO: 70", "T30 construct": "T110Q", "protocol": "as §1"}, "[31]": {"target": "T31, SEQ ID NO: 64", "T31 construct": "no mutations", "protocol": "as §1"}, "[32]": {"target": "T32, SEQ ID NO: 48", "T32 construct": "no mutations", "T32 sequence (VHH, as listed by the source)": "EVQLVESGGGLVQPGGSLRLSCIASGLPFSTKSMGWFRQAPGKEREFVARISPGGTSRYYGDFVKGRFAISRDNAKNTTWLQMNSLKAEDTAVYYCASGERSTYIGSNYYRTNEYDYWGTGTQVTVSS", "protocol": "as §1"}, "[33]": {"target": "T33, SEQ ID NO: 88", "T33 construct": "L11S, T110Q", "protocol": "as §1"}, "[34]": {"target": "T34, SEQ ID NO: 62", "T34 construct": "no mutations", "protocol": "as §1"}, "[35]": {"target": "T35, SEQ ID NO: 85", "T35 construct": "L11S, T110Q, S112G, S113G", "T35 sequence (VHH, as listed by the source)": "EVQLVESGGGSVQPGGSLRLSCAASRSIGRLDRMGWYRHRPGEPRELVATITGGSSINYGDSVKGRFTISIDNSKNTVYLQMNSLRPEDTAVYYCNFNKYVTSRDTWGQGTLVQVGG", "protocol": "as §1"}, "[36]": {"target": "T36, SEQ ID NO: 87", "T36 construct": "L11S, S112G, S113G", "protocol": "as §1"}, "[37]": {"target": "T37, SEQ ID NO: 82", "T37 construct": "P84A", "T37 sequence (VHH, as listed by the source)": "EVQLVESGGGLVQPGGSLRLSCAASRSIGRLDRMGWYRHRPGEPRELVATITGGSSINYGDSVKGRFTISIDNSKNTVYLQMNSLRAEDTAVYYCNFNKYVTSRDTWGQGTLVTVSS", "protocol": "as §1"}, "[38]": {"target": "T38, SEQ ID NO: 49", "T38 construct": "V5L, I23A, E44G, A49S, A68T, A74S, T78L, W79Y, K83R, T110Q, Q108L", "T38 sequence (VHH, as listed by the source)": "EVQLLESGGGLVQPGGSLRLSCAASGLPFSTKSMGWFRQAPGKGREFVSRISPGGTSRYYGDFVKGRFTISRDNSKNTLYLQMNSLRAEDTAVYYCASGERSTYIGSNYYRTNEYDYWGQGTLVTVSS", "protocol": "as §1"}, "[39]": {"target": "T39, SEQ ID NO: 69", "T39 construct": "L108Q", "protocol": "as §1"}, "[40]": {"target": "T40, SEQ ID NO: 81", "T40 construct": "L11V", "protocol": "as §1"}, "[41]": {"target": "T41, SEQ ID NO: 59", "T41 construct": "no mutations", "T41 sequence (chain, as listed by the source)": "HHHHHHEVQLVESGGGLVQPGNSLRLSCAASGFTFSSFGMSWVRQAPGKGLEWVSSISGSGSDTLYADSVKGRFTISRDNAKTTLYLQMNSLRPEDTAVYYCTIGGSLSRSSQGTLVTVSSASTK", "protocol": "as §1"}, "[42]": {"target": "T42, SEQ ID NO: 61", "T42 construct": "no mutations", "T42 sequence (chain, as listed by the source)": "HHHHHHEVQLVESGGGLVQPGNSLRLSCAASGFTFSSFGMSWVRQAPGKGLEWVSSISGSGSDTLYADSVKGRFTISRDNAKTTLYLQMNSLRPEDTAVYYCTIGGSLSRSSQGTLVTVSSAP", "protocol": "as §1"}, "[43]": {"target": "T43, SEQ ID NO: 75", "T43 construct": "no mutations", "protocol": "as §1"}, "[44]": {"target": "T44, SEQ ID NO: 71", "T44 construct": "S113G", "T44 sequence (VHH, as listed by the source)": "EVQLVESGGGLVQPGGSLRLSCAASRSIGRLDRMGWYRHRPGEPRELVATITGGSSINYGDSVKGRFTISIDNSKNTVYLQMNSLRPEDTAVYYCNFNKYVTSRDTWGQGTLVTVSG", "protocol": "as §1"}, "[45]": {"target": "T45, SEQ ID NO: 39", "T45 construct": "no mutations", "T45 sequence (chain, as listed by the source)": "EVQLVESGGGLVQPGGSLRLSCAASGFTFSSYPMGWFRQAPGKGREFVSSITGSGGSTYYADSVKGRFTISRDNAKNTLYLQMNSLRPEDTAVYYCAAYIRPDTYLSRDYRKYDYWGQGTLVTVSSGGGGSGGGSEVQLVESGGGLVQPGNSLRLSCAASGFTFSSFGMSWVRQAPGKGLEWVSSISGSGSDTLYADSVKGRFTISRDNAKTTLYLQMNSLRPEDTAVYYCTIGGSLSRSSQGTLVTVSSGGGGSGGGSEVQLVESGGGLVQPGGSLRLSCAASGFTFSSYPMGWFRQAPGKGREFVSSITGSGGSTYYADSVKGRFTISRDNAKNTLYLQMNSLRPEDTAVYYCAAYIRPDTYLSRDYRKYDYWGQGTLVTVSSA", "protocol": "as §1"}, "[46]": {"target": "T46, SEQ ID NO: 42", "T46 construct": "no mutations", "protocol": "as §1"}, "[47]": {"target": "T47, SEQ ID NO: 72", "T47 construct": "S112G, S113G", "protocol": "as §1"}}}
{"binder": "monoclonal antibody 21-4-3 (antibody, V domains shown, also called mAb21-4-3; mAb 21-4-3) VH: QIQLVQSGPELKKPGETVKISCKASGYTFTAYSMHWVKQAPGKGLKWMGWINTVTGEPAYADDFKGRFAFSLETSASTAYLQISSLKNEDTATYFCTRGLIHFYYWGQGTTLTVSS VL: DIQMTQTPSSLSASLGGRVTITCKASQDIHNFISWYQHKPGKVPRLIIHDTSTLQPGIPSRFSGSGSGRDYSFSITNLEPEDIATYYCLHYDNLLRSFGGGTKLEIKR", "values": [{"measurement": "binding level as % of reference sequence (=100%)", "setting": "[1]", "result": 6, "unit": "%"}, {"measurement": "binding level as % of reference sequence (=100%)", "setting": "[2]", "result": 26, "unit": "%"}, {"measurement": "binding level as % of reference sequence (=100%)", "setting": "[3]", "result": 2, "unit": "%"}, {"measurement": "binding level as % of reference sequence (=100%)", "setting": "[4]", "result": 1, "unit": "%"}, {"measurement": "binding level as % of reference sequence (=100%)", "setting": "[5]", "result": 91, "unit": "%"}, {"measurement": "binding level as % of reference sequence (=100%)", "setting": "[6]", "result": 79, "unit": "%"}, {"measurement": "binding level as % of reference sequence (=100%)", "setting": "[7]", "result": 6, "unit": "%"}, {"measurement": "binding level as % of reference sequence (=100%)", "setting": "[8]", "result": 48, "unit": "%"}, {"measurement": "binding level as % of reference sequence (=100%)", "setting": "[9]", "result": 22, "unit": "%"}, {"measurement": "binding level as % of reference sequence (=100%)", "setting": "[10]", "result": 2, "unit": "%"}, {"measurement": "binding level as % of reference sequence (=100%)", "setting": "[11]", "result": 2, "unit": "%"}, {"measurement": "binding level as % of reference sequence (=100%)", "setting": "[12]", "result": 4, "unit": "%"}, {"measurement": "binding level as % of reference sequence (=100%)", "setting": "[13]", "result": 7, "unit": "%"}, {"measurement": "binding level as % of reference sequence (=100%)", "setting": "[14]", "result": 51, "unit": "%"}, {"measurement": "binding level as % of reference sequence (=100%)", "setting": "[15]", "result": 1, "unit": "%"}, {"measurement": "binding level as % of reference sequence (=100%)", "setting": "[16]", "result": 6, "unit": "%"}, {"measurement": "binding level as % of reference sequence (=100%)", "setting": "[17]", "result": 64, "unit": "%"}, {"measurement": "binding level as % of reference sequence (=100%)", "setting": "[18]", "result": 101, "unit": "%"}, {"measurement": "binding level as % of reference sequence (=100%)", "setting": "[19]", "result": 3, "unit": "%"}, {"measurement": "binding level as % of reference sequence (=100%)", "setting": "[20]", "result": 1, "unit": "%"}, {"measurement": "binding level as % of reference sequence (=100%)", "setting": "[21]", "result": 23, "unit": "%"}, {"measurement": "binding level as % of reference sequence (=100%)", "setting": "[22]", "result": 1, "unit": "%"}, {"measurement": "binding level as % of reference sequence (=100%)", "setting": "[23]", "result": 3, "unit": "%"}, {"measurement": "binding level as % of reference sequence (=100%)", "setting": "[24]", "result": 7, "unit": "%"}, {"measurement": "binding level as % of reference sequence (=100%)", "setting": "[25]", "result": 1, "unit": "%"}, {"measurement": "binding level as % of reference sequence (=100%)", "setting": "[26]", "result": 100, "unit": "%"}, {"measurement": "binding level as % of reference sequence (=100%)", "setting": "[27]", "result": 0, "unit": "%"}, {"measurement": "binding level as % of reference sequence (=100%)", "setting": "[28]", "result": 1, "unit": "%"}, {"measurement": "binding level as % of reference sequence (=100%)", "setting": "[29]", "result": 6, "unit": "%"}, {"measurement": "binding level as % of reference sequence (=100%)", "setting": "[30]", "result": 106, "unit": "%"}, {"measurement": "binding level as % of reference sequence (=100%)", "setting": "[31]", "result": 6, "unit": "%"}, {"measurement": "binding level as % of reference sequence (=100%)", "setting": "[32]", "result": 3, "unit": "%"}, {"measurement": "binding level as % of reference sequence (=100%)", "setting": "[33]", "result": 1, "unit": "%"}, {"measurement": "binding level as % of reference sequence (=100%)", "setting": "[34]", "result": 6, "unit": "%"}, {"measurement": "binding level as % of reference sequence (=100%)", "setting": "[35]", "result": 32, "unit": "%"}, {"measurement": "binding level as % of reference sequence (=100%)", "setting": "[36]", "result": 41, "unit": "%"}, {"measurement": "binding level as % of reference sequence (=100%)", "setting": "[37]", "result": 56, "unit": "%"}, {"measurement": "binding level as % of reference sequence (=100%)", "setting": "[38]", "result": 4, "unit": "%"}, {"measurement": "binding level as % of reference sequence (=100%)", "setting": "[39]", "result": 106, "unit": "%"}, {"measurement": "binding level as % of reference sequence (=100%)", "setting": "[40]", "result": 75, "unit": "%"}, {"measurement": "binding level as % of reference sequence (=100%)", "setting": "[41]", "result": 6, "unit": "%"}, {"measurement": "binding level as % of reference sequence (=100%)", "setting": "[42]", "result": 6, "unit": "%"}, {"measurement": "binding level as % of reference sequence (=100%)", "setting": "[43]", "result": 1, "unit": "%"}, {"measurement": "binding level as % of reference sequence (=100%)", "setting": "[44]", "result": 44, "unit": "%"}, {"measurement": "binding level as % of reference sequence (=100%)", "setting": "[45]", "result": 0, "unit": "%"}, {"measurement": "binding level as % of reference sequence (=100%)", "setting": "[46]", "result": 0, "unit": "%"}, {"measurement": "binding level as % of reference sequence (=100%)", "setting": "[47]", "result": 45, "unit": "%"}]}
